# Measured values as given in the supplement of paper PMC9170038.
# Tested on: K4 kissing-loop RNA reporter
# Assay: apparent KD of K4 kissing-loop reporter; higher = weaker reporter binding
# Details: Eterna round: R107
# Method: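 RNA-MaP round R107: designed RNA switches with theophylline, tryptophan, arginine or FMN aptamers are transcribed on-chip within common flanks. They are titrated with a labelled K4 kissing-loop RNA reporter in RNA-MaP buffer (100 mM Tris pH 7.5, 80 mM KCl, 4 mM MgCl2), without ligand or with the indicated ligand. Median apparent KD per design.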
# [1] = input ligand: theophylline 20 uM
# [2] = input ligand: tryptophan 2.4 mM
# 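Also: bound reporter read as fluorescence of individual clusters on recovered sequencing chips by microscopy, with normalized cluster intensities fitted with a binding model.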
Sequence,apparent KD of K4 kissing-loop reporter (input ligand: FMN 200 uM) [nM],apparent KD of K4 kissing-loop reporter (input ligand: arginine 13.2 mM) [nM],apparent KD of K4 kissing-loop reporter (input ligand: none) [nM],apparent KD of K4 kissing-loop reporter [1] [nM],apparent KD of K4 kissing-loop reporter [2] [nM]
GGGUCAUGGAACGGAUAAGUGAUGUUUACCCGAGGACCGGUACGGCCGCCACUCGGUCGUUAUUUCCGACGUGCUGGUAAGACUA [theeternabot_exclusion_KL_Trp_A_10],336,253,378,348,475
GCGCGUCAUGUCAGCGGUGACACUGUCGAUACCAGUGCCGUAAGGCGCCCUUGGCAGCGACGUGCUGGAGUGAUGUUCCAGCGUU [#2 Exclusion - Theophylline A Attempt #31 (HarryS)],143,132,153,154,146
UCUCAGGAGUGAUGUUCCGUAGGUGGAAGGAAGGAUAUCUAAUGGCAGAGAAGGUCCAUCCUUGCUCGUAUCAGUGCCGGGAAGC [theeternabot_exclusion_KL_FMN_A_13],282,251,232,304,168
AUUUUUUUGUCAGGAUAUUAGUGUGCGUUUGGUUUGUUAGUGAUGUUGAUAUUUGGUUUAUGUAUUUAAGAAGGGAUUUAGCGGU [dhbbtemullin],557,480,562,582,357
ACGCGCGUGCGCUGGAAAGCGCACGCGCGUCGAGGACCGGUACGGCCGCCACUCGCUCGCGCCGAGUGAUGUUCGGCCGGCGAAC [#2 SameState - Tryptophan_A Attempt #2 (HarryS)],342,288,303,292,645
AAGCGUGUCGCGGCCGCCACUCCUGAGUGAUGUUCAGAAAGCAGUUUUUUAUUCAGGAAAAGCGCGAGGACCGGGCGACGCCGAU [theeternabot_sameState_KL_Trp_B_1],367,207,460,328,515
UGAUAGGACAGAAGGAGCGGUAGUGAUGUUACCAAAAGUAUAAGGUGUCAAAAGACACCCUGCCAGGUAGGUCGCUGUCCUAUCU,157,210,178,198,152
GCGGCGGGCCAAGGAUAUAUAUUGGAGUGAUGUUGUUCAUUUAUUUGAGCUAGUGAUGUUGGUCAGAUAGAAGGUGGCCCGCCGC [whbob_Ex_FMNB__2th216],76.3,30.1,51.1,46.2,46.4
UGUCAUUGGUCUGAUACCAGUUGAUAAACUGGAGUGAUGUUCCUCGACGAAUACGUCGACAACCCUUGGCAGCAGACCGAUGACU [TheoBS 14 #SwitchBubble 13 #StaticStem],683,627,713,354,607
AAGUUUUAUAAACUCAUGGUUUCGUCAGAUACCAGCCUCGAGAGAGGCCCUUGGCAGCUGCAUGAGUGAUGUUCAUGUUCGAAGA [KL_XTheoA8],253,260,374,239,251
UAACUUGCAGUGAUGUUGCAAGAACUGGAUACCAGCAUGGAAACAUGCCCUUGGCAGCCAGAAGGUAUCCUCUUGCAUAGAUACU [Design3],216,178,195,220,192
CAUGUGUCUAUUACGAUGGAUACAUAUACUGAGGAUAUCACAUUUAUGAGAAGGCAGUAAACUGCGAGUGAUGUUCGCAGUACGU [FMN A SS t8],159,204,214,316,248
CUAUGGAAACAUAGUAGUCGGGAAACCGAUACCAGUAUGGAAACAUACCCUUGGCAGCGGAAUGAUUAAACGGAGUGAUGUUCCG [Theophylline A K4 18],279,276,292,223,250
GCCGUACGCAUGGAUACCAGAGAUGUUAAUCUCGAUGCCAGUGAUGUUGGCUUUAGCUAUCUCCCUUGGCAGCCAUGCGUACGGC,1050,608,909,566,1000
CGAAUGGAACUAUUGAACAUUUGUAUUGGCAAGGAUAUCGGGCUAUCGAGAAGGUGCUAUUUGGGCAGUGAUGUUGCCGAUUUAA [theeternabot_sameState_KL_FMN_A_10],43.3,94.4,54.1,90.9,50
AGACUACCACACUGUCAAUAGACAGUGUACUAGGAUAUGCUGAUAAGCAGAAGGAGUGAUGUUCCUAGGUAGUCAAUAAAAUAAU [FmnAX 13 U28],439,443,494,629,574
UGGACAUGACUCGAUAAGAGUCAAUGAGAUACCAGUGACGAAAGUCACCCUUGGCAGCUCAACUGCCAGUGAUGUUGGUAGUCCU [#SwitchBubble #StaticStem],739,424,742,793,566
UGACUGGACUGAAGGAGCGCGAACUCCUAGUGAUGUUAGGAAAUACGAGACAAAGUCUCGACGCAGGUAGGUCGCAGUCUAGUCU [ArgBS 15 #SwitchBubble #StaticStem],110,86.6,107,104,98
GCAGUGAUGUUGCGGAUGUACAGUGGCGUGCGAGGACCGGUACGGCCGCCACUCGUACAGAACAAGCUAAUACAUCGAUAGGUGA [whbob_SS_Tryp_A_m1],493,294,556,516,355
CCAGUUUGAGUGAUGUUCAGGCAUUGGUACGAGGAUAUCGAGGAGUUGAGAAGGCGUACUACUCAACUAUGUAUGAAUACAUACC [FMN A Ex t2],224,89,125,126,116
GGUUCCUCAGUGAUGUUGAGGUGACCUCGGCAGGAUAUAGGCAUUACUAGAAGGGCCAAAAGAAUCCUGUGCAGCAACACAGGGA [Usrasoza],152,238,298,257,262
AGCCGAAAGGCGAGUGCUGUCACUCCGGAAGGAGCGCAGGAAACUGCAGGUAGGUCGCCGGAGUGAUGUUCCGGUGCAGCACUCA [Omei KL Arginine A Exc B v6],614,317,1120,561,800

Sequence,apparent KD of K4 kissing-loop reporter (input ligand: FMN 200 uM) [nM],apparent KD of K4 kissing-loop reporter (input ligand: arginine 13.2 mM) [nM],apparent KD of K4 kissing-loop reporter (input ligand: none) [nM],apparent KD of K4 kissing-loop reporter [1] [nM],apparent KD of K4 kissing-loop reporter [2] [nM]
GUUACGCAUGGAAGGAGCGCACUCCGAUUGGGCGACACAGUGAUGUUGUGGUUCGUUCGAAUGCAGGUAGGUCGCCAUGUGUAAC [Ex Arginine B K4 20],181,153,140,153,142
ACAUUAGGCACGGCCGCCACUGGAUUAAGAUCUUAAGUAUUAAUUAACAUGAGUGAUGUUCAUGCCAGGACCGGGUGACUACCAU [KL-SSTryp-B11],275,222,261,267,252
GGAUAGGACAUAGGAUAUGGUAGUGAUGUUACCAAACUGGUUAAACAUGUCAGAAAACUGGCAUGACCAGAAGGAUGUCCUAUCG [FmnBX 27 U11+A75],85.2,63.2,66.3,58.8,63.5
UGACAUUGCUCAGAUACCAGACACGAGGAUCACCCGUGUGCCAAAACGUACUAAAUAAGUGUCCCUUGGCAGCUGAGCAAUGUCU [TheoBX 13],78.1,19.8,30.1,148,47.8
AAGGCACGGCUUCGGCCGUGCCAAAUAGAUACCAGCAUAAUAAUAUGCCCUUGGCAGCUAAAUAUAAAUUCAGUGAUGUUGGAUA [SS Theo A Tesla 2.2],573,412,604,649,546
CGCGCGUGAGGACUUGCCCUUCAUGGAGAUACCAGCCAGUAUGCGGGCCCUUGGCAGCUCGAGUGAUGUUCGAGUUUAAGGCAAA [Riesla],130,113,115,114,108
AGAACUGUCUUGGAUACCAGUGAUGUUGGUAUCGAUGUGUGAGUGCAAAGCGUCCCAGAGUGCCCUUGGCAGCUAAGACUGUUCA [#16 K4 Theophylline B Exclusion],277,230,269,261,259
UCUGGAGCAUAUGAUACCAGCAGUGAGAGAGAGGAAGUAUAGUGAUGUUAUAUGAGAGAAUGCCCUUGGCAGCGUGUGUAGUGGG [SSTheophylB.M],155,146,119,94.5,107
UGAUCAACAUCUGAUACCAGUCGCUCGAGUAAUCAACCGUGGCUAGUGAUGUUGGCUUUUGACCCUUGGCAGCAGAAUCGUGUCA [theeternabot_sameState_KL_Theo_B_20],134,131,112,189,120
AAAUAAAUCAGAGGAUAUUCUUCCCACGUCGAAGUACCGUGCUUGAUGGAGUGAUGUUCGAUCAGAGAAGAAGGCUGAUAAAUAA [Same State FMN B GF 19],732,395,917,621,338
AGGAGCGUGCGAUGGAAAUCGCACGCUCCUCGAGGACCGGUACGGCCGCCACUCGCUCGCGCCGAGUGAUGUUCGGCCGGCGAAG [#2 Same State - Tryptophan A Attempt #16 (HarryS)],85.6,128,85.7,58.6,82.8
UGACUGGACUGAAGGAGCGCGCGAGACAAAGUCUCGAACUGCUAGUGAUGUUAGCAAAUAACGCAGGUAGGUCGCAGUCUAGUCU [ArgBS 11 #SwitchBubble #StaticStem #DoubleMagnet],135,100,137,92.3,124
GCCGUAGAUUGAAGGAGCGUUCUUCAGCAUACUUGCAGUGAUGUUGCAUUUUACAUGUAAGAACAGGUAGGUCGCAAUCUACGGC,–,119,412,40,235
UGUAUGUGAUUUGAUACCAGACCAGCUGGUGGAUCACGAGUGAUGUUCGUGUUGGUUUGGGUCCCUUGGCAGCAAAUCGCAUACU [KL-SSTheoB13],218,151,180,131,166
UUUGGAGAGGGAAGGAGCGUGAAAGAGAAAGAAUAUAGUGAUGUUAUAUAGAAGAAAGAAUCACAGGUAGGUCGCCCGGAGGAGG [SSArgB.D],707,865,661,990,575
AAGUCAUAGGCAGGAUAUGCUUAGUAUUAAGGCCAUAUAUACGUAUAGAGUGAUGUUUUGUACCAGGCAGAAGGGCUACAUCCGU [FMN B Excl V5 (+2U)],755,562,699,683,541
AAUGUACAAGUGAUGUUUGUACUUUCCGAAGGAGCGUCUAAUAAGACAGGUAGGUCGCGGAUACUCUAAAUAAUCAGGUCAUUGA [#06 K4 Arginine A Exclusion],89.9,89,79.8,80.6,77.4
AUGAGGAGCAGUGAUCCUAUUCCAUGGGAAGGAGCGUAGGAUACUACAGGUAGGUCGCCCAGUGAUGUUGGGCGCGUGCUCUUGG [Zaqua],159,133,133,178,146
UAGGCCGCAUACAUUAGAUAAGGUACCGAUACCAGCCUCGCACCAGGCCCUUGGCAGCGGCAUCAAAUGGGUAGUGAUGUUACCU [theeternabot_exclusion_KL_Theo_A_20],139,135,159,144,136
AAGAGCUAGGCGGCCGCCACUAGAUGUGAACACAUACAAACCAGUGAUGUUGGUAUGAUGGACAGUAGGACCGGGCCUAGCUGAA [Exclusion - Tryptophan B (Freestyle 10)],998,585,1010,1350,995
GCAACAUUGGCAGGAUAUCAUUCUGAGUGAUGUUCAGGGUUCAGCUAACGAAAGUUAGUUGUACCAUGAGAAGGGCUAAUGUUGC [Omei KL FMN B SS A v1],332,886,1120,1020,1080
